Experimental data as given in patent US20140234872.

Assays:
[1] = test system: His-GIV-CT (aa 1660-1870), wild-type, phosphorylated in vitro by recombinant EGFR kinase
[2] = test system: His-GIV-CT Y1764F, phosphorylated in vitro by recombinant EGFR kinase
[3] = test system: His-GIV-CT Y1798F, phosphorylated in vitro by recombinant EGFR kinase
His-GIV-CT Y1798F, phosphorylated in vitro by recombinant EGFR kinase, sequence (chain, as listed by the source Y1798F): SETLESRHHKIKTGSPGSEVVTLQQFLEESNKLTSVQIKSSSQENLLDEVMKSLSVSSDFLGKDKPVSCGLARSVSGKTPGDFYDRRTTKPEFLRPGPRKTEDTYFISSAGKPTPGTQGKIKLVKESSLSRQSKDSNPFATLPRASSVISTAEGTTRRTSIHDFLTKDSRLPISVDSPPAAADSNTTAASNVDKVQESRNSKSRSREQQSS

His-GIV-CT (aa 1660-1870), wild-type, phosphorylated in vitro by recombinant EGFR kinase, sequence (chain, as listed by the source): as the sequence (chain, as listed by the source Y1798F) above, with F139Y counted along it
His-GIV-CT Y1764F, phosphorylated in vitro by recombinant EGFR kinase, sequence (chain, as listed by the source Y1764F): as the sequence (chain, as listed by the source Y1798F) above, with Y105F, F139Y counted along it

Row | Substance | in vitro phosphatase assay: residual tyrosine phosphorylation of His-GIV-CT [1] | in vitro phosphatase assay: residual tyrosine phosphorylation of His-GIV-CT mutants [2] | in vitro phosphatase assay: residual tyrosine phosphorylation of His-GIV-CT mutants [3]
1 | GST-SHP-1 (full length, wild-type, human) | SHP-1 WT, but not SHP-1 CS dephosphorylated tyrosine-phosphorylated His-GIV-CT in a dose-dependent manner |  | 
2 | GST-SHP-1 C453S (catalytically inactive) | SHP-1 WT, but not SHP-1 CS dephosphorylated tyrosine-phosphorylated His-GIV-CT in a dose-dependent manner |  | 
3 | His-SHP-1 (human, recombinant) | SHP-1 efficiently dephosphorylated GIV in a dose-dependent manner | SHP-1 efficiently dephosphorylated both mutants | SHP-1 efficiently dephosphorylated both mutants
